Values of other authors in publication doi:10.1101/2022.06.02.22275920v1, “Glucagon/GLP-1 receptor co-agonist NNC9204-1177 reduced body weight in adults with overweight or obesity but was associated with safety issues” (medRxiv, 2022).

Conditions: type 2 diabetes; 1.0 mg dose level
Text: Indeed, GLP-1 RAs are known to have chronotropic effects; for example, increases in pulse rate have been reported in participants with type 2 diabetes in a MAD trial with semaglutide and in trials with dulaglutide and a dual glucose-dependent insulinotropic polypeptide (GIP) and GLP-1 RA [33]. However, the increase in heart rate for NN1177 far exceeds that observed for semaglutide; for example in the SUSTAIN 6 cardiovascular outcomes trial for semaglutide in type 2 diabetes, a placebo ...

In the case of semaglutide, the “placebo-corrected heart rate increase” value is given as 3.2 bpm.
